5 compounds from patent publication US11504441B2, “Radiolabeled compounds targeting the prostate-specific membrane antigen” (PROVINCIAL HEALTH SERVICES AUTHORITY, priority 2019, dated 2022) can be followed below.

Data set [1] deals with PSMA-expressing LNCaP cancer xenografts. Particulars: mouse, in vivo.
Data set [2] is described as follows: in vivo. As to conditions: male, NODSCID 1L2RγKO, mouse, iv, total radioactivity; for excreta dose per gram or mL at 1 h: Urine uptake.

Turning to `O=C(O)CCCCC(NC(=O)N[C@@H](CCCCNC(=O)[C@H](Cc1c2ccccc2cc2ccccc12)NC(=O)[C@H]1CC[C@H](CNC(=O)CN2CCN(CC(=O)O)CCN(CC(=O)O)CCN(CC(=O)O)CC2)CC1)C(=O)O)C(=O)O` (single isomer, unassigned) [68Ga-HTK03189A, metal not drawn], in data set [1] (male, NODSCID 1L2RγKO, iv, 1 h), the Tumor uptake came out at 2.10 ± 0.28 % ID/g. Moreover, in data set [1], the “Blood: Salivary ratio” value stood at 4.39 ± 0.44. Also, in data set [1], the “Tumor: Blood ratio” value was 2.41 ± 0.29. In data set [1], the “Tumor: Kidney ratio” value is 0.83 ± 0.21. Besides, the “Tumor: Muscle ratio” value in data set [1] is 16.5 ± 4.08. Further, the “Tumor: Salivary ratio” value in data set [1] is listed as 10.5 ± 1.07. The tissue uptake – broadly, the percentage of the injected dose found per gram of tissue – at 1 h was 0.35 ± 0.06 %ID/g in data set [2] (Adrenal glands uptake); 0.89 ± 0.22 %ID/g in data set [2] (Blood uptake); 0.12 ± 0.03 %ID/g in data set [2] (Bone uptake); 0.02 %ID/g in data set [2] (Brain uptake); 0.18 ± 0.11 %ID/g in data set [2] (Fat uptake); 0.24 ± 0.06 %ID/g in data set [2] (Heart uptake). The tissue uptake at 1 h in data set [2] (Intestine uptake) was determined as 0.31 ± 0.18 %ID/g; in data set [2] (Kidneys uptake) it was 2.65 ± 0.69 %ID/g; in data set [2] (Lacrimal uptake) it was 0.18 ± 0.18 %ID/g; in data set [2] (Liver uptake), 0.34 ± 0.15 %ID/g; in data set [2] (Lungs uptake) it was 0.68 ± 0.12 %ID/g; in data set [2] (Muscle uptake), 0.14 ± 0.04 %ID/g. Also, the tissue uptake at 1 h in data set [2] (Pancreas uptake) is 0.15 ± 0.04 %ID/g; in data set [2] (Salivary uptake), 0.2 ± 0.04 %ID/g; in data set [2] (Seminal uptake) it was 3.61 ± 4.59 %ID/g; in data set [2] (Spleen uptake), 0.21 ± 0.1 %ID/g; in data set [2] (Stomach uptake), 0.11 ± 0.06 %ID/g; in data set [2] (Tail uptake) it was 0.77 ± 0.3 %ID/g. In addition, the tissue uptake at 1 h in data set [2] (Testes uptake) was 0.23 ± 0.11 %ID/g; in data set [2] (Thyroid uptake) it was 0.25 ± 0.05 %ID/g. The excreta dose per gram or mL at 1 h in data set [2] turned out to be 343 ± 54.4 %ID/g.

Turning to `O=C(O)CCCCC(NC(=O)N[C@@H](CCCCNC(=O)[C@H](Cc1c2ccccc2cc2ccccc12)NC(=O)[C@H]1CC[C@H](CNC(=O)CN2CCN(CC(=O)O)CCN(CC(=O)O)CCN(CC(=O)O)CC2)CC1)C(=O)O)C(=O)O` (single isomer, unassigned) [68Ga-HTK03189B, metal not drawn], in data set [1] (male, NODSCID 1L2RγKO, iv, 1 h), the Adrenal glands uptake amounted to 0.37 ± 0.15 % ID/g, the Blood uptake came out at 1.06 ± 0.25 % ID/g, the Bone uptake is given as 0.10 ± 0.02 % ID/g and the Brain uptake was 0.03 ± 0.00 % ID/g. In addition, in data set [1] (male, NODSCID 1L2RγKO, iv, 1 h), the Fat uptake amounted to 0.17 ± 0.10 % ID/g, the Heart uptake is listed as 0.30 ± 0.06 % ID/g, the Intestine uptake came to 0.28 ± 0.07 % ID/g and the Kidneys uptake amounted to 2.13 ± 0.45 % ID/g. In data set [1] (male, NODSCID 1L2RγKO, iv, 1 h), this compound displayed a Lacrimal uptake of 0.13 ± 0.04 % ID/g, a Liver uptake of 0.39 ± 0.08 % ID/g, a Lungs uptake of 0.82 ± 0.22 % ID/g and a Muscle uptake of 0.12 ± 0.03 % ID/g. In addition, in data set [1] (male, NODSCID 1L2RγKO, iv, 1 h), the Pancreas uptake is reported as 0.18 ± 0.05 % ID/g, the Salivary uptake is recorded as 0.22 ± 0.04 % ID/g, the Seminal uptake turned out to be 2.62 ± 4.74 % ID/g and the Spleen uptake is 0.20 ± 0.05 % ID/g. In data set [1] (male, NODSCID 1L2RγKO, iv, 1 h), this compound showed a Stomach uptake of 0.11 ± 0.03 % ID/g, a Tail uptake of 0.90 ± 0.29 % ID/g, a Testes uptake of 0.26 ± 0.05 % ID/g and a Thyroid uptake of 0.29 ± 0.08 % ID/g. In data set [1] (male, NODSCID 1L2RγKO, iv, 1 h), the Tumor uptake turned out to be 0.67 ± 0.15 % ID/g and the Urine uptake amounted to 441 ± 138 % ID/g. Moreover, in data set [1], the “Blood: Salivary ratio” value was found to be 4.86 ± 1.16, the “Tumor: Blood ratio” value is on record as 0.65 ± 0.15, the “Tumor: Kidney ratio” value turned out to be 0.32 ± 0.05 and the “Tumor: Muscle ratio” value was determined as 5.68 ± 1.12. Further, in data set [1], the “Tumor: Salivary ratio” value turned out to be 3.08 ± 0.53.

In the case of `O=C(O)C[C@H](NC(=O)N[C@@H](CCCCNC(=O)[C@H](Cc1c2ccccc2cc2ccccc12)NC(=O)[C@H]1CC[C@H](CNC(=O)CN2CCN(CC(=O)O)CCN(CC(=O)O)CCN(CC(=O)O)CC2)CC1)C(=O)O)C(=O)O` [68Ga-HTK03161, metal not drawn], the “Blood: Salivary ratio” value in data set [1] came to 5.08 ± 0.62. Also, the “Tumor: Blood ratio” value in data set [1] amounted to 11.4 ± 1.73. Moreover, the “Tumor: Kidney ratio” value in data set [1] worked out at 3.03 ± 0.84. Besides, in data set [1], the “Tumor: Muscle ratio” value amounted to 89.4 ± 36.1. In addition, the “Tumor: Salivary ratio” value in data set [1] is 57.2 ± 7.11. The tissue uptake at 1 h was found to be 0.41 ± 0.07 %ID/g in data set [2] (Adrenal glands uptake); 1.13 ± 0.19 %ID/g in data set [2] (Blood uptake); 0.11 ± 0.02 %ID/g in data set [2] (Bone uptake); 0.02 %ID/g in data set [2] (Brain uptake); 0.15 ± 0.04 %ID/g in data set [2] (Fat uptake); 0.32 ± 0.05 %ID/g in data set [2] (Heart uptake). In addition, the tissue uptake at 1 h in data set [2] (Intestine uptake) was 0.31 ± 0.09 %ID/g; in data set [2] (Kidneys uptake), 4.41 ± 1.26 %ID/g; in data set [2] (Lacrimal uptake), 0.12 ± 0.06 %ID/g; in data set [2] (Liver uptake) it was 0.28 ± 0.05 %ID/g; in data set [2] (Lungs uptake), 0.75 ± 0.13 %ID/g; in data set [2] (Muscle uptake), 0.15 ± 0.04 %ID/g. The tissue uptake at 1 h is 0.18 ± 0.03 %ID/g in data set [2] (Pancreas uptake); 0.23 ± 0.05 %ID/g in data set [2] (Salivary uptake); 6.22 ± 12.2 %ID/g in data set [2] (Seminal uptake); 0.27 ± 0.06 %ID/g in data set [2] (Spleen uptake); 0.1 ± 0.04 %ID/g in data set [2] (Stomach uptake); 0.55 ± 0.1 %ID/g in data set [2] (Tail uptake). The tissue uptake at 1 h stood at 0.54 ± 0.51 %ID/g in data set [2] (Testes uptake), 0.29 ± 0.05 %ID/g in data set [2] (Thyroid uptake) and 12.7 ± 1.91 %ID/g in data set [2] (Tumor uptake). Further, the excreta dose per gram or mL at 1 h in data set [2] worked out at 363 ± 155 %ID/g.

`O=C(O)CCC[C@H](NC(=O)N[C@@H](CCCCNC(=O)[C@H](Cc1ccc2ccccc2c1)NC(=O)[C@H]1CC[C@H](CNC(=O)CN2CCN(CC(=O)O)CCN(CC(=O)O)CCN(CC(=O)O)CC2)CC1)C(=O)O)C(=O)O` [68Ga-HTK03169, metal not drawn]: in data set [1], the “Blood: Salivary ratio” value came out at 4.39 ± 2.06. For the same compound, the “Tumor: Blood ratio” value in data set [1] came to 6.09 ± 2.24. The “Tumor: Kidney ratio” value in data set [1] was 1.47 ± 0.16. Besides, the “Tumor: Muscle ratio” value in data set [1] amounted to 47.1 ± 12.3. Also, the “Tumor: Salivary ratio” value in data set [1] came to 23.2 ± 1.91. For the same compound, the tissue uptake at 1 h worked out at 0.24 ± 0.08 %ID/g in data set [2] (Adrenal glands uptake); 0.63 ± 0.36 %ID/g in data set [2] (Blood uptake); 0.08 ± 0.03 %ID/g in data set [2] (Bone uptake); 0.02 ± 0.01 %ID/g in data set [2] (Brain uptake); 0.09 ± 0.04 %ID/g in data set [2] (Fat uptake); 0.14 ± 0.07 %ID/g in data set [2] (Heart uptake). Also, the tissue uptake at 1 h is 0.23 ± 0.16 %ID/g in data set [2] (Intestine uptake); 2.18 ± 0.48 %ID/g in data set [2] (Kidneys uptake); 0.13 ± 0.06 %ID/g in data set [2] (Lacrimal uptake); 0.21 ± 0.16 %ID/g in data set [2] (Liver uptake); 0.38 ± 0.17 %ID/g in data set [2] (Lungs uptake); 0.08 ± 0.05 %ID/g in data set [2] (Muscle uptake). In addition, the tissue uptake at 1 h stood at 0.11 ± 0.05 %ID/g in data set [2] (Pancreas uptake); 0.14 ± 0.03 %ID/g in data set [2] (Salivary uptake); 3.83 ± 2.93 %ID/g in data set [2] (Seminal uptake); 0.13 ± 0.06 %ID/g in data set [2] (Spleen uptake); 0.09 ± 0.11 %ID/g in data set [2] (Stomach uptake); 0.48 ± 0.2 %ID/g in data set [2] (Tail uptake). Further, the tissue uptake at 1 h in data set [2] (Testes uptake) was determined as 0.13 ± 0.07 %ID/g; in data set [2] (Thyroid uptake) it was 0.16 ± 0.07 %ID/g; in data set [2] (Tumor uptake), 3.19 ± 0.7 %ID/g. The excreta dose per gram or mL at 1 h in data set [2] is 421 ± 187 %ID/g.

With `O=C(O)CCC[C@H](NC(=O)N[C@@H](CCCCNC(=O)[C@H](Cc1c2ccccc2cc2ccccc12)NC(=O)[C@H]1CC[C@H](CNC(=O)CN2CCN(CC(=O)O)CCN(CC(=O)O)CCN(CC(=O)O)CC2)CC1)C(=O)O)C(=O)O` [HTK03149], the “uptake in kidney and salivary gland compared to HTK03041” value in data set [1] is on record as “significantly decreases the uptake”.
